Test results as given in article PMC11980035, “Activation of automethylated PRC2 by dimerization on chromatin” (Molecular cell, 2024).

Target: T1, Enhancer of zeste homolog 2 (EZH2), isoform 2, subunit of recombinant human PRC2, automethylated (human, UniProt Q15910-2 1-751, K510, K514 and K515 methylated to varying degrees (automethylation))
T1 construct: EZH2 isoform 2, human, full-length; Stood in the assay as a subunit of PRC2; also called EZH2^dist; EZH2^prox; source: as subunit of m1: HighFive / Trichoplusia ni insect cells, baculovirus, purified within PRC2
T1 sequence (Q15910 other isoform, or with tags, fused parts or gaps): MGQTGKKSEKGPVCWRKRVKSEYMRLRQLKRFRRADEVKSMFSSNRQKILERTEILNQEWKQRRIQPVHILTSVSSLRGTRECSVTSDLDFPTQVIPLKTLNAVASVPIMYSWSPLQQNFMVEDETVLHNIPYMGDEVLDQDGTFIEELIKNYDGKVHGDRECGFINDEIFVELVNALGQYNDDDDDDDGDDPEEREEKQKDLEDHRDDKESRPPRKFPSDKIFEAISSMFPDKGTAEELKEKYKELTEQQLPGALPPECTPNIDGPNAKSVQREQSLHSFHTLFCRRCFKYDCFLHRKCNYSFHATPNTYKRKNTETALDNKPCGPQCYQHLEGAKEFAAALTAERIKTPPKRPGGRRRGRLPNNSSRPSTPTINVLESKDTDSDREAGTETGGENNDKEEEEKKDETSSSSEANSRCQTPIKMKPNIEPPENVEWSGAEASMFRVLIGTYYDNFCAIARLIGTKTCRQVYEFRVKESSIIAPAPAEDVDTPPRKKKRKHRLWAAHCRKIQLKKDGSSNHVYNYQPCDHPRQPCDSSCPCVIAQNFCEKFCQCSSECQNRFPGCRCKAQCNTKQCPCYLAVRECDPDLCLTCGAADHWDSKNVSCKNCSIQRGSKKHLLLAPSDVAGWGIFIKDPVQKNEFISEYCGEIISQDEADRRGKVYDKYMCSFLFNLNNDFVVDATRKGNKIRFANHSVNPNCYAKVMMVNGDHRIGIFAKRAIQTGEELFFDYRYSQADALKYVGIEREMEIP
Assay: cryo-EM structure; 800 nM automethylated PRC2 with 200 nM biotinylated nucleosome and 100 μM SAH in 25 mM HEPES pH 7.9, 50 mM KCl, 1 mM TCEP, 30 minutes at RT; nucleosome held on streptavidin affinity grids; classes of a PRC2 dimer and of a PRC2 monomer on the nucleosome
Conditions: both partners purified

B1: Embryonic ectoderm development (EED), subunit of recombinant human PRC2 (natural protein)
chain: not shown
notes: EED, human, full-length; Stood in the assay as a subunit of PRC2; also called EED^prox; EED^dist; source: as subunit of m1: HighFive / Trichoplusia ni insect cells, baculovirus, purified within PRC2
B1: binds.
